For six molecules, interaction score results are on record in paper PMC10397247.

Experiment in all cases: two-hybrid library CCNG1;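 note: natural log of median RNA to DNA barcode read ratio; higher means stronger binding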
In one assay the target is T1, P7A-bN.
T1 chain: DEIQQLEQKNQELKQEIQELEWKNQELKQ

A further assay addresses T2, P8A-bN.
T2 chain: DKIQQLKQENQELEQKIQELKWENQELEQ

For the next assay, the target named is T3, P9A-bN.
T3 chain: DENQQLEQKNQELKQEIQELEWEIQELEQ

The target of another assay is T4, 4H932-bA.
T4 chain: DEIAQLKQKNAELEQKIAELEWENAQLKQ

The next assay has as its target T5, O3-bS.
T5 chain: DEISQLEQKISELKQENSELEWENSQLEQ

The next assay addresses T6, 4H949-bA.
T6 chain: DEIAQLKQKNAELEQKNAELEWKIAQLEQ

A further assay concerns the target T7, 4H796-bA.
T7 chain: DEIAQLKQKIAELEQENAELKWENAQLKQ

Another assay concerns the target T8, P9mSN.
T8 chain: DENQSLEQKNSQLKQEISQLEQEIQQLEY

For the next assay, the target named is T9, O4-bS.
T9 chain: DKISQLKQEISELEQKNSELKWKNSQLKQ

The next assay addresses T10, O6-bS.
T10 chain: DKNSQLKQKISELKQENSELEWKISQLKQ

In a further assay the target is T11, O2-bS.
T11 chain: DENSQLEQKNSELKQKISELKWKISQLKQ

In a further assay the target is T12, O5-bS.
T12 chain: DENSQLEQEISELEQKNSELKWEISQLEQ

A further assay concerns the target T13, O7-bS.
T13 chain: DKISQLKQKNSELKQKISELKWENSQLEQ

The next assay deals with T14, O9-bS.
T14 chain: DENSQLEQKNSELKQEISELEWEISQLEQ

For a further assay, the target named is T15, O8-bS.
T15 chain: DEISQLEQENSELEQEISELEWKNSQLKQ

The target in the next assay is T16, 4H3631-bH.
T16 chain: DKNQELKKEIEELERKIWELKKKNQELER

For the next assay, the target named is T17, 4H570-bH.
T17 chain: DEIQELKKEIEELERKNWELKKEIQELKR

For another assay, the target named is T18, 4H584-bH.
T18 chain: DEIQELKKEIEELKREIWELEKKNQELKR

The next assay concerns the target T19, 4H3974-bH.
T19 chain: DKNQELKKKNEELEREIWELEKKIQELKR

A further assay has as its target T20, 4H3414-bH.
T20 chain: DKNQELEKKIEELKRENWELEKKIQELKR

A further assay has as its target T21, 4H3172-bH.
T21 chain: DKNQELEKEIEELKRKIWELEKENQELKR

The target of a further assay is T22, 4H619-bH.
T22 chain: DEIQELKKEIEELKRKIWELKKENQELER

The target of a further assay is T23, 4H3817-bH.
T23 chain: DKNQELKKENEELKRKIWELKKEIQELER

For another assay, the target named is T24, 4H3638-bH.
T24 chain: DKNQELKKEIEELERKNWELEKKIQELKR

For a further assay, the target named is T25, 4H850-bH.
T25 chain: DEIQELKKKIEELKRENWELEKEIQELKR

In a further assay the target is T26, 4H906-bH.
T26 chain: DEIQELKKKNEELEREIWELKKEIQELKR

For the next assay, the target named is T27, 4H3129-bH.
T27 chain: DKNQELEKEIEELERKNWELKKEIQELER

B1: P7A-bN (peptide)
chain: DEIQQLEQKNQELKQEIQELEWKNQELKQ
On to B1, for which the interaction score with P7A-bN is 0.344; in the assay with P8A-bN, 2.12; with P9A-bN it was -1.19.

B2: 4H796-bA (peptide)
chain: DEIAQLKQKIAELEQENAELKWENAQLKQ
On to B2, for which the interaction score is -0.164 with 4H932-bA, -0.947 with O3-bS, -0.898 with 4H949-bA and 0.961 with 4H796-bA.

B3: P6A-bN (peptide)
chain: DKNQQLKQEIQELEQENQELEWKIQELKQ
Regarding B3, the interaction score was 0.204 in the assay with P7A-bN, -0.195 with P8A-bN, 0.0031 in the assay with P9A-bN and -0.239 in the assay with P9mSN.

B4: O2-bS (peptide)
chain: DENSQLEQKNSELKQKISELKWKISQLKQ
As to B4, the interaction score with O4-bS was -1.49; with O6-bS, -1.1; with O2-bS, -0.754; with O5-bS, -2.56; in the assay with O7-bS, -0.412; with O9-bS, -1.59. Also, the interaction score in the assay with O8-bS is -2.49.

B5: 4H3172-bH (peptide)
chain: DKNQELEKEIEELKRKIWELEKENQELKR
B5: the interaction score with 4H3631-bH was 0.994; with 4H570-bH, 0.871; in the assay with 4H584-bH, -1.68; with 4H3974-bH it was 0.353; in the assay with 4H3414-bH it was 0.693; with 4H3172-bH, 0.448. For the same molecule, the interaction score is -1.22 with 4H619-bH; -0.475 in the assay with 4H3817-bH; -0.13 with 4H3638-bH; -0.531 with 4H850-bH; -0.821 with 4H906-bH.

B6: 4H3129-bH (peptide)
chain: DKNQELEKEIEELERKNWELKKEIQELER
Regarding B6, the interaction score in the assay with 4H3631-bH is -0.645; with 4H570-bH, -1.61; in the assay with 4H584-bH it was -0.445; with 4H3974-bH, -0.348; with 4H3414-bH, 1.62; in the assay with 4H3172-bH, -0.227. The interaction score with 4H619-bH is -0.44; with 4H3817-bH it was -0.197; with 4H3638-bH, -1.18; with 4H850-bH, 0.17; with 4H906-bH, -0.384; with 4H3129-bH it was -2.16.
